Experimental data taken from paper PMC3986302 (International Journal of Nanomedicine, 2014).

Molecular target: T1, full-length p63 (GST-fusion) (human, UniProt Q9H3D4 1-680)
T1 sequence (looked up): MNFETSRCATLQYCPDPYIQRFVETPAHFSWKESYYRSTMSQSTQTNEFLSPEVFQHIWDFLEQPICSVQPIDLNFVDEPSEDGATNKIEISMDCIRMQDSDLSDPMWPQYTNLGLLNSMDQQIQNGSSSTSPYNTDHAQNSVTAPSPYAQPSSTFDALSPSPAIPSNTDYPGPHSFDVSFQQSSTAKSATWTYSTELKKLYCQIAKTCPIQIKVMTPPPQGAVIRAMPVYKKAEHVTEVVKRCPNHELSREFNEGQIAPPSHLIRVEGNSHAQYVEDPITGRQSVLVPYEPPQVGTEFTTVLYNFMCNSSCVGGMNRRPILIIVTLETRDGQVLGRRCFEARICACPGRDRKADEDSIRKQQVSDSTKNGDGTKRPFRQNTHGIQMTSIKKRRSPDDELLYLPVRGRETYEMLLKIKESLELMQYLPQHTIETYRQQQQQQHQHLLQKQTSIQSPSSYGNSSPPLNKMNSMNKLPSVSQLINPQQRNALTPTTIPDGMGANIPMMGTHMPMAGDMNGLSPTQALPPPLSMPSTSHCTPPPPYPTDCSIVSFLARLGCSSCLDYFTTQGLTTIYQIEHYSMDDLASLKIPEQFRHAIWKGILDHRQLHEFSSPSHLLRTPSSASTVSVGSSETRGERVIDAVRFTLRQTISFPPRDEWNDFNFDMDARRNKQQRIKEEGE
Assay: atomic force spectroscopy

Binder: LSTAADMQGVVTDGMASGLDKDYLKPDD [p28]
- binding result: binds
